From publication doi:10.1101/2025.08.31.673340, “Structural and dynamic basis of indirect apoptosis inhibition by Bcl-xL: a case study with Bid” (bioRxiv, 2025)
Substitutions are numbered along the chain they refer to.

B1: cBid (mouse Bid cleaved by Caspase 8), wild type (complex)
chain 1: MDSEVSNGSGLGAEHITDLLVFGFLQSSGCTRQELEVLGRELPVQAYWEADLEDELQTD
chain 2: GSQASRSFNQGRIEPDSESQEEIIHNIARHLAQIGDEMDHNIQPTLVRQLAAQFMNGSLSEEDKRNCLAKALDEVKTAFPRDMENDKAMLIMTMLLAKKVASHAPSLLRDVFHTTVNFINQNLFSYVRNLVRNEMD
notes: also called cBid wt; cBidWT; source: E. coli, purified from the soluble fraction (Ni-NTA), cleaved with Caspase 8, purified again with Ni-NTA; not shown: His tag (on Bid before cleavage)
B2: cBid spin-labeled at the natural cysteine 126 (complex, mouse)
chain 1: B1 chain 1 with C30S
chain 2: B1 chain 2
modifications: MTSL spin label on cysteine 126
notes: p7 fragment of mouse Bid; natural cysteine C30 replaced by serine (singly labeled variant); tBid fragment of mouse Bid with its natural cysteine C126; source: E. coli, purified (Ni-NTA), cleaved with Caspase 8, purified again with Ni-NTA, spin-labeled with MTSL; not shown: His tag (on Bid before cleavage)

How the values were obtained:
[1] = target: T1, human Bcl-xL, full length, wild type (human, UniProt Q07817-1 1-233); test: HDX-MS; conditions Bcl-xL; Bcl-xL + LUVs; Bcl-xL + LUVs + cBid; cBid; proteins (340 pmol) pre-incubated with LUVs 1 h at 37 °C, centrifuged at 20'000 x g, the pellet used for deuterium labelling; conditions: both partners purified
T1 construct: human Bcl-xL, full length with the C-terminal hydrophobic helix α9; also called Bcl-xL wt; unlabeled wild type Bcl-xL; source: E. coli, purified from the soluble fraction (chitin resin, anion exchange, Superdex 200)

[2] = target: T1, human Bcl-xL, full length, wild type; test: co-sedimentation; spin-labeled protein incubated with LUVs alone or with the unlabeled partner; supernatant and pellet fractions quantified by room temperature continuous wave EPR (spin counting); conditions: both partners purified

T1 sequence (Q07817 whole entry): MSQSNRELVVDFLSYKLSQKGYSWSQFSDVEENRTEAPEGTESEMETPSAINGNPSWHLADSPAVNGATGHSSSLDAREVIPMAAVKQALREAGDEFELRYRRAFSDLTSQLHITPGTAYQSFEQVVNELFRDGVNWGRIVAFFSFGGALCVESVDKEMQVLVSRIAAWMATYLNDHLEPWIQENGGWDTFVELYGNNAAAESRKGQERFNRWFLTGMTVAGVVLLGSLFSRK

Binder	binding result [1]	binding result [2]
B1	binds	
B2		binds
